According to the Human Domainome abundance scans (Beltran et al. 2025):
± gives the uncertainty stated by the source.

B1: POU domain, class 2, transcription factor 2, residues 200 to 269; numbered along this chain, P09086 (parent)
chain: LEELEQFARTFKQRRIKLGFTQGDVGLAMGKLYGNDFSQTTISRFEALNLSFKNMCKLKPLLEKWLNDAE

Variants of: B1
Experiment: abundance fitness (aPCA) (normalised: wild type 0, dead -1); higher = more abundant; growth selection in yeast, the domain comes from the species named
Details: Homo sapiens

Row | Variant | abundance fitness
1 | G30Q | 0.107 ± 0.14
2 | G30R | -0.063 ± 0.043
3 | G30S | 0.061 ± 0.048
4 | G30T | 0.009 ± 0.074
5 | G30V | -0.052 ± 0.035
6 | G30W | -0.013 ± 0.054
7 | G30Y | -0.051 ± 0.076
8 | K31A | -0.019 ± 0.042
9 | K31C | -0.054 ± 0.065
10 | K31D | -0.114 ± 0.055
11 | K31E | -0.064 ± 0.055
12 | K31F | -0.336 ± 0.11
13 | K31G | -0.047 ± 0.031
14 | K31H | -0.119 ± 0.093
15 | K31I | -0.136 ± 0.062
16 | K31L | -0.092 ± 0.041
17 | K31M | -0.168 ± 0.051
18 | K31N | -0.166 ± 0.083
19 | K31P | -0.142 ± 0.059
20 | K31Q | -0.04 ± 0.055
21 | K31R | 0.002 ± 0.038
22 | K31S | -0.033 ± 0.061
23 | K31T | -0.036 ± 0.072
24 | K31V | -0.115 ± 0.049

Row | Variant | abundance fitness
25 | K31W | -0.246 ± 0.061
26 | K31Y | -0.178 ± 0.075
27 | L32A | -0.006 ± 0.05
28 | L32C | -0.083 ± 0.081
29 | L32D | 0.037 ± 0.082
30 | L32F | -0.093 ± 0.063
31 | L32G | -0.08 ± 0.034
32 | L32H | -0.126 ± 0.14
33 | L32I | -0.049 ± 0.087
34 | L32K | 0.01 ± 0.077
35 | L32M | -0.021 ± 0.072
36 | L32N | -0.163 ± 0.18
37 | L32P | -0.209 ± 0.077
38 | L32Q | 0.04 ± 0.072
39 | L32R | -0.022 ± 0.035
40 | L32S | -0.01 ± 0.046
41 | L32T | -0.071 ± 0.059
42 | L32V | -0.098 ± 0.045
43 | L32W | -0.201 ± 0.051
44 | L32Y | 0 ± 0.084
45 | Y33A | -0.057 ± 0.032
46 | Y33C | -0.043 ± 0.046
47 | Y33D | -0.036 ± 0.079
48 | Y33E | -0.074 ± 0.062

Row | Variant | abundance fitness
49 | Y33F | -0.062 ± 0.087
50 | Y33H | -0.01 ± 0.091
51 | Y33I | -0.076 ± 0.09
52 | Y33K | -0.062 ± 0.048
53 | Y33L | -0.024 ± 0.036
54 | Y33M | -0.055 ± 0.076
55 | Y33N | -0.156 ± 0.071
56 | Y33P | -0.068 ± 0.061
57 | Y33Q | -0.07 ± 0.065
58 | Y33R | -0.17 ± 0.035
59 | Y33S | -0.041 ± 0.035
60 | Y33T | -0.016 ± 0.056
61 | Y33V | -0.06 ± 0.048
62 | Y33W | -0.105 ± 0.049
63 | G34A | -0.071 ± 0.046
64 | G34C | -0.143 ± 0.051
65 | G34D | -0.065 ± 0.088
66 | G34E | 0.052 ± 0.064
67 | G34F | -0.177 ± 0.062
68 | G34H | -0.018 ± 0.11
69 | G34I | -0.248 ± 0.065
70 | G34K | -0.111 ± 0.07
71 | G34L | -0.208 ± 0.032
72 | G34M | -0.208 ± 0.089

Row | Variant | abundance fitness
73 | G34N | -0.068 ± 0.09
74 | G34P | -0.081 ± 0.053
75 | G34Q | 0.087 ± 0.065
76 | G34R | -0.132 ± 0.038
77 | G34S | -0.062 ± 0.039
78 | G34T | -0.105 ± 0.086
79 | G34V | -0.168 ± 0.046
80 | G34W | -0.207 ± 0.044
81 | G34Y | -0.06 ± 0.11
82 | N35A | -0.016 ± 0.05
83 | N35D | -0.095 ± 0.069
84 | N35E | 0.106 ± 0.055
85 | N35F | -0.029 ± 0.077
86 | N35H | -0.114 ± 0.12
87 | N35I | -0.15 ± 0.08
88 | N35M | -0.049 ± 0.053
89 | N35P | -0.017 ± 0.034
90 | N35Q | -0.104 ± 0.08
91 | N35R | -0.022 ± 0.04
92 | N35S | -0.078 ± 0.04
93 | N35T | -0.203 ± 0.067
94 | N35V | -0.091 ± 0.047
95 | N35W | -0.026 ± 0.058
96 | N35Y | 0 ± 0.071

Row | Variant | abundance fitness
97 | D36A | -0.05 ± 0.042
98 | D36C | -0.12 ± 0.05
99 | D36E | -0.026 ± 0.059
100 | D36F | 0.017 ± 0.072
101 | D36G | -0.06 ± 0.031
102 | D36H | -0.003 ± 0.17
103 | D36I | -0.057 ± 0.08
104 | D36L | -0.049 ± 0.036
105 | D36M | -0.162 ± 0.07
106 | D36N | -0.063 ± 0.061
107 | D36P | -0.122 ± 0.053
108 | D36Q | -0.047 ± 0.08
109 | D36R | -0.034 ± 0.04
110 | D36S | -0.05 ± 0.041
111 | D36V | -0.048 ± 0.038
112 | D36W | -0.052 ± 0.048
113 | D36Y | 0.013 ± 0.09
114 | F37A | -0.152 ± 0.056
115 | F37C | -0.06 ± 0.065
116 | F37D | -0.4 ± 0.091
117 | F37E | -0.255 ± 0.08
118 | F37G | -0.28 ± 0.044
119 | F37H | -0.093 ± 0.13
120 | F37I | 0.088 ± 0.068

Row | Variant | abundance fitness
121 | F37K | -0.434 ± 0.065
122 | F37L | -0.052 ± 0.039
123 | F37M | -0.024 ± 0.076
124 | F37Q | -0.061 ± 0.073
125 | F37R | -0.39 ± 0.044
126 | F37S | -0.24 ± 0.049
127 | F37T | -0.175 ± 0.065
128 | F37V | -0.065 ± 0.041
129 | F37W | -0.012 ± 0.049
130 | F37Y | -0.048 ± 0.092
131 | S38A | -0.014 ± 0.053
132 | S38C | -0.023 ± 0.059
133 | S38D | 0.241 ± 0.28
134 | S38E | -0.015 ± 0.053
135 | S38G | 0.025 ± 0.034
136 | S38I | -0.107 ± 0.19
137 | S38K | -0.055 ± 0.061
138 | S38M | -0.085 ± 0.051
139 | S38N | 0.044 ± 0.073
140 | S38P | -0.065 ± 0.044
141 | S38Q | -0.054 ± 0.068
142 | S38R | -0.037 ± 0.023
143 | S38T | -0.004 ± 0.05
144 | S38V | -0.081 ± 0.041

Row | Variant | abundance fitness
145 | S38W | -0.157 ± 0.04
146 | S38Y | -0.234 ± 0.12
147 | Q39A | -0.032 ± 0.034
148 | Q39C | -0.077 ± 0.061
149 | Q39D | 0.017 ± 0.082
150 | Q39E | 0.01 ± 0.037
151 | Q39F | -0.022 ± 0.08
152 | Q39G | -0.027 ± 0.031
153 | Q39H | -0.11 ± 0.088
154 | Q39I | -0.017 ± 0.063
155 | Q39K | -0.029 ± 0.056
156 | Q39L | -0.046 ± 0.037
157 | Q39M | -0.024 ± 0.064
158 | Q39N | -0.306 ± 0.097
159 | Q39P | 0.035 ± 0.048
160 | Q39R | -0.019 ± 0.028
161 | Q39S | 0.005 ± 0.047
162 | Q39T | 0.042 ± 0.05
163 | Q39V | -0.002 ± 0.031
164 | T40C | -0.038 ± 0.063
165 | T40D | 0.02 ± 0.089
166 | T40E | -0.002 ± 0.063
167 | T40F | -0.041 ± 0.096
